From the RNAGym collection of RNA variant scans (doi:10.1021/acssynbio.7b00057) come the findings set out here.

Sequences and labels used below:
B1: Pistol ribozyme (parent)
chain: GGGUCGUUGUUCCAUAAUCGCGUGGAUAUGGCACGCAAGUUUCUACCGGGCACCGUAAAUGUCCGACUGGAGCCGUUCGGGCGGCUAUAAACAGACCUCAGGCCCGAAGCGUGGCGGCACCUGCCGCCGGUGGUAAAAAAGAUCGGAAGAGCACACGUCU

The variants in the series derive from B1. The series is described as follows: aptazyme ON/OFF ratio, guanine; higher = stronger switching; co-transcriptional cleavage with and without guanine.
Consider U7C U8G G9C U10C C13U, for which the “aptazyme ON/OFF ratio” value worked out at 1.71.
Regarding U7C U8G G9C U10A C12A C13G, the “aptazyme ON/OFF ratio” value amounted to 1.1.
For U7C U8G G9C U10A C12A C13U, the “aptazyme ON/OFF ratio” value came out at 1.18.
To U7C U8G G9C U10A C12A C13A belongs 1.22.
Next, U7C U8G G9A U11G C12A C13G: 1.17; U7C U8G G9A U11G C12A C13U: 1.19.
Next, U7C U8G G9A U11G C12A C13A: 1.17; U7C U8G G9C U10C C12A: 1.07; U7C U8G G9C U10C C12U: 1.27.
On to U7C U8G G9C U10C C12G, for which the “aptazyme ON/OFF ratio” value was found to be 1.08.
For U7C U8G G9C U10C U11C C13A, the “aptazyme ON/OFF ratio” value was 1.03.
Take U7C U8G G9C U10C U11C C13U: the “aptazyme ON/OFF ratio” value came out at 1.02.
To U7C U8G G9C U10C U11C C13G belongs 1.03.
Next, U7C U8G G9A U11C C13G: 1.02; U7C U8G G9A U11C C13U: 1.05.
To U7C U8G G9A U11C C13A belongs 1.04.
As to U7C U8G G9C U10A C13U, the “aptazyme ON/OFF ratio” value stood at 1.15.
Next, U7C U8G G9C U10A C13A: 1.14; U7C U8G G9C U10A C13G: 1.08.
Regarding U7C U8G G9C U10A U11G C12A C13G, the “aptazyme ON/OFF ratio” value stood at 1.19.
Next, U7C U8G G9C U10A U11G C12A C13U: 1.18; U7C U8G G9C U10A U11G C12A C13A: 1.08.
To U7C U8G G9A U11C C12U belongs 1.11.
To U7C U8G G9A U11C C12G belongs 1.11.
Turning to U7C U8G G9A U11C C12A, the “aptazyme ON/OFF ratio” value amounted to 1.1.
To U7C U8G G9C C13G belongs 1.04.
Next, U7C U8G G9C C13U: 1.04.
Next, U7C U8G G9C C13A: 1.06; U7C U8G G9C U10C C12A C13G: 1.1; U7C U8G G9C U10C C12A C13A: 1.06.
Regarding U7C U8G G9C U10C C12A C13U, the “aptazyme ON/OFF ratio” value was found to be 1.06.
As to U7C U8G G9A U11G C12U C13G, the “aptazyme ON/OFF ratio” value was 1.29.
Consider U7C U8G G9A U11G C12U C13A, for which the “aptazyme ON/OFF ratio” value turned out to be 1.27.
To U7C U8G G9A U11G C12U C13U belongs 1.27; to U7C U8G G9C U10C C12U C13U, 1.09; to U7C U8G G9C U10C C12U C13A, 1.05.
Next, U7C U8G G9C U10C C12U C13G: 1.08.
To U7C U8G G9C C12G C13G belongs 1.12; to U7C U8G G9C C12G C13U, 1.18.
Turning to U7C U8G G9C C12G C13A, the “aptazyme ON/OFF ratio” value was 1.27.
To U7C U8G G9C U10C U11C C12G C13G belongs 1.08; to U7C U8G G9C U10C U11C C12G C13A, 1.19; to U7C U8G G9C U10C U11C C12G C13U, 1.07.
To U7C U8G G9C U10A U11C C12A C13U belongs 1.17; to U7C U8G G9C U10A U11C C12A C13A, 1.19; to U7C U8G G9C U10A U11C C12A C13G, 1.11.
To U7C U8G G9C U10C U11G C12A belongs 1.03; to U7C U8G G9C U10C U11G C12G, 1.09; to U7C U8G G9C U10A C12U C13A, 1.21.
In the case of U7C U8G G9C U10A C12U C13G, the “aptazyme ON/OFF ratio” value came to 1.13.
To U7C U8G G9C U10A C12U C13U belongs 1.05; to U7C U8G G9C U10C C12G C13A, 1.43.
Next, U7C U8G G9C U10C C12G C13G: 1.09.
To U7C U8G G9C U10C C12G C13U belongs 1.1; to U7C U8G G9A U11C C12A C13A, 1.1; to U7C U8G G9A U11C C12A C13U, 1.14.
As to U7C U8G G9A U11C C12A C13G, the “aptazyme ON/OFF ratio” value stood at 1.12.
Next, U7C U8G G9C U10A U11C C13G: 1.04.
To U7C U8G G9C U10A U11C C13U belongs 1.01.
To U7C U8G G9C U10A U11C C13A belongs 1.07; to U7C U8G G9C U10A C12G C13G, 1.2.
Take U7C U8G G9C U10A C12G C13A: the “aptazyme ON/OFF ratio” value stood at 1.2.
To U7C U8G G9C U10A C12G C13U belongs 1.19; to U7C U8G G9C U10C U11G C12A C13A, 1.12.
With U7C U8G G9C U10C U11G C12A C13U, the “aptazyme ON/OFF ratio” value was 1.05.
Take U7C U8G G9C U10C U11G C12A C13G: the “aptazyme ON/OFF ratio” value worked out at 1.06.
To U7C U8G G9C U10A U11A C12G C13G belongs 1.18.
To U7C U8G G9C U10A U11A C12G C13A belongs 1.12.
To U7C U8G G9C U10A U11A C12G C13U belongs 1.17; to U7C U8G G9C C12U C13U, 1.2; to U7C U8G G9C C12U C13G, 1.07.
Turning to U7C U8G G9C C12U C13A, the “aptazyme ON/OFF ratio” value was 1.16.
Next, U7C U8G G9C U10C U11A C12G: 1.07; U7C U8G G9C U10C U11A C12A: 1.08.
Next, U7C U8G G9C U10C U11A C12U: 1.09; U7C U8G G9A U11G C12A: 1.09.
Next, U7C U8G G9A U11G C12U: 1.26.
With U7C U8G G9A U11G C12G, the “aptazyme ON/OFF ratio” value turned out to be 1.23.
Next, U7C U8G G9C U10C U11A C12U C13A: 1.08; U7C U8G G9C U10C U11A C12U C13U: 1.08; U7C U8G G9C U10C U11A C12U C13G: 1.21.
Regarding U7C U8G G9C U10A U11G C13A, the “aptazyme ON/OFF ratio” value came to 1.19.
Next, U7C U8G G9C U10A U11G C13U: 1.18.
To U7C U8G G9C U10A U11G C13G belongs 1.03.
